Kd data for 34 sequences are collected here from the Immune Epitope Database (IEDB).

One test has as its target HLA-A*11:01. Description: IEDB peptide-MHC binding, purified MHC/competitive/radioactivity; filed as Kd, often an IC50 or EC50 that approximates it; ≥ and ≤ were set here for values at or beyond the usual limits of such assays. As to conditions: source organism: Vaccinia virus WR.
Regarding VTSLAIKNYY, the Kd is 21.7 nM.
The same measure, in the same setting: as for VVKLTAVCMK, the figure is 121 nM.
In the case of YTVEFDRDK, the Kd is 18900 nM.
For the sequence YVIRHVDGK, the Kd is 10.2 nM.

For the next test, the target named is HLA-A*31:01. The test is described as above. As to conditions: source organism: Lassa virus Josiah.
With SCPKPHRLNH, the Kd was ≥ 38500 nM.

Still in this test, the particulars now being: source organism: Lymphocytic choriomeningitis virus (strain Armstrong).
On to SCQGSDDIR, for which the Kd is ≥ 33900 nM.

The test is the same for the next values; noted with them: source organism: Mammarenavirus brazilense.
SVTLDFTKFH: the Kd came to 10100 nM.

The test is the same for the next values; noted with them: source organism: Mammarenavirus guanaritoense.
VCEEFFHQK: the Kd was ≥ 22200 nM.

Still in this test, the particulars now being: source organism: Mammarenavirus lassaense.
Turning to QCWRSFLNK, the Kd came out at 880 nM.

The same test, now with this note: source organism: Mammarenavirus whitewaterense.
For the sequence SLLTNDTTWI, the Kd stood at 17000 nM.

Still in this test, the particulars now being: source organism: SARS coronavirus Tor2.
As to QQLRVESSSK, the Kd turned out to be 435 nM.
On to QSLCFLLTQK, for which the dissociation constant (Kd) was 54.2 nM.
Consider SLCFLLTQK, for which the Kd was found to be 231 nM.
On to SQIQLSLLK, for which the Kd came to 18000 nM.
Take TLAVPYNMR: the Kd stood at 152 nM.
In the case of TLDESFLGR, the Kd was 841 nM.
With TTGIGYQPYR, the Kd worked out at 105 nM.

The same test, now with this note: source organism: Vaccinia virus WR.
Take PSAEDNYLAK: the Kd was ≥ 20300 nM.
With PVIVVPVIDR, the Kd is 13200 nM.
Same read-out and setting: under QTTVNTLSER stands 21.7 nM; under SAFNDDGIY, 9580 nM.
With SAVFKDSFLR, the Kd came to 23.9 nM.
The same measure, in the same setting: as for SAVVDNKLK, the figure is ≥ 58900 nM; as for SIYSRPKIK, 4890 nM; as for SSFIMRNFLR, 1.3 nM.
For TILLSDKGK, the Kd worked out at 7390 nM.
Turning to TLSPAHLINK, the Kd came out at 168 nM.
Take TMCTEETKR: the dissociation constant (Kd) came out at 2980 nM.
With TVKTNLYMK, the Kd amounted to 81.7 nM.
With VIPFDDIVR, the Kd was found to be 338 nM.
Consider VIVVPVIDR, for which the Kd stood at 9910 nM.
On to VMANNVKKK, for which the Kd is 3910 nM.
VSIILANERY: the Kd was 8590 nM.
For VTISKDNLER, the Kd was determined as 118 nM.
Still for that read-out and setting: as for VTSLAIKNYY, the figure is 281 nM; as for VVKLTAVCMK, 208 nM.
As to YTVEFDRDK, the Kd is ≥ 33400 nM.
The same measure, in the same setting: as for YVIRHVDGK, the figure is ≥ 77900 nM.

The target of a further test is HLA-A*33:01. Described as above. As to conditions: source organism: Lassa virus Josiah.
Take SCPKPHRLNH: the Kd is ≥ 34300 nM.

The test is the same for the next values; noted with them: source organism: Lymphocytic choriomeningitis virus (strain Armstrong).
On to SCQGSDDIR, for which the Kd is ≥ 51400 nM.

Staying with this test, now noted: source organism: Mammarenavirus brazilense.
Take SVTLDFTKFH: the Kd came out at 9440 nM.

The same test, now with this note: source organism: Mammarenavirus guanaritoense.
On to VCEEFFHQK, for which the equilibrium dissociation constant (Kd) was ≥ 77700 nM.

Still in this test, the particulars now being: source organism: Mammarenavirus lassaense.
Turning to QCWRSFLNK, the Kd was found to be 743 nM.

The test is the same for the next values; noted with them: source organism: Mammarenavirus whitewaterense.
For the sequence SLLTNDTTWI, the Kd was ≥ 70000 nM.

Staying with this test, now noted: source organism: SARS coronavirus Tor2.
Regarding QQLRVESSSK, the Kd came to 1260 nM.
On to QSLCFLLTQK, for which the Kd is 1470 nM.
Consider SLCFLLTQK, for which the Kd stood at 5560 nM.
Turning to SQIQLSLLK, the Kd is ≥ 77700 nM.
TLAVPYNMR: the Kd came to 126 nM.
Take TLDESFLGR: the Kd was determined as 1120 nM.
Consider TTGIGYQPYR, for which the Kd came out at 1740 nM.

The same test, now with this note: source organism: Vaccinia virus WR.
For the sequence PSAEDNYLAK, the Kd was found to be 4120 nM.
PVIVVPVIDR: the Kd came out at 9180 nM.
In the case of QTTVNTLSER, the Kd is 155 nM.
Regarding SAFNDDGIY, the dissociation constant Kd was ≥ 77700 nM.
As to SAVFKDSFLR, the Kd turned out to be 372 nM.
On to SAVVDNKLK, for which the Kd was ≥ 77700 nM.
For the sequence SIYSRPKIK, the Kd was ≥ 37900 nM.
With SSFIMRNFLR, the Kd came out at 870 nM.
On the same count and under the same terms, as for TILLSDKGK, the figure is ≥ 44300 nM.
Take TLSPAHLINK: the Kd stood at 11400 nM.
On to TMCTEETKR, for which the Kd was determined as 12400 nM.
Regarding TVKTNLYMK, the Kd came to 6320 nM.
The same measure, in the same setting: as for VIPFDDIVR, the figure is 302 nM; as for VIVVPVIDR, ≥ 77700 nM.
Regarding VMANNVKKK, the Kd is ≥ 75200 nM.
As for VSIILANERY, the Kd came to 19000 nM.
VTISKDNLER: the Kd amounted to 357 nM.
Turning to VTSLAIKNYY, the Kd was 420 nM.
As to VVKLTAVCMK, the Kd was 2680 nM.
Take YTVEFDRDK: the Kd was ≥ 44800 nM.
For YVIRHVDGK, the Kd was ≥ 77700 nM.

The target in the next test is HLA-A*68:01. The description is as above. Particulars: source organism: Lassa virus Josiah.
For the sequence SCPKPHRLNH, the Kd is ≥ 70100 nM.

Still in this test, the particulars now being: source organism: Lymphocytic choriomeningitis virus (strain Armstrong).
For SCQGSDDIR, the Kd was ≥ 21800 nM.

The same test, now with this note: source organism: Mammarenavirus brazilense.
With SVTLDFTKFH, the Kd was 18400 nM.

Still in this test, the particulars now being: source organism: Mammarenavirus guanaritoense.
In the case of VCEEFFHQK, the Kd was found to be 5950 nM.

Staying with this test, now noted: source organism: Mammarenavirus lassaense.
With QCWRSFLNK, the Kd was found to be 13600 nM.

Still in this test, the particulars now being: source organism: Mammarenavirus whitewaterense.
With SLLTNDTTWI, the Kd is ≥ 70100 nM.

The same test, now with this note: source organism: SARS coronavirus Tor2.
With QQLRVESSSK, the Kd turned out to be 1950 nM.
For the sequence QSLCFLLTQK, the Kd worked out at 63.8 nM.
As to SLCFLLTQK, the Kd amounted to 1200 nM.
As for SQIQLSLLK, the Kd stood at 6270 nM.
TLAVPYNMR: the Kd was determined as 9.36 nM.
As to TLDESFLGR, the Kd came to 947 nM.
For TTGIGYQPYR, the Kd is 9.5 nM.

The same test, now with this note: source organism: Vaccinia virus WR.
For the sequence PSAEDNYLAK, the Kd was found to be 5710 nM.
In the case of PVIVVPVIDR, the Kd is 16.7 nM.
QTTVNTLSER: the Kd was 5.22 nM.
Still for that read-out and setting: as for SAFNDDGIY, the figure is 1860 nM.
For SAVFKDSFLR, the dissociation constant Kd was determined as 18.2 nM.
With SAVVDNKLK, the Kd came out at 580 nM.
Same read-out and setting: under SIYSRPKIK stands 398 nM; under SSFIMRNFLR, 13.6 nM; under TILLSDKGK, 198 nM.
As for TLSPAHLINK, the Kd was 120 nM.
As for TMCTEETKR, the Kd worked out at 121 nM.
As for TVKTNLYMK, the Kd worked out at 104 nM.
As to VIPFDDIVR, the Kd was determined as 174 nM.
Regarding VIVVPVIDR, the Kd stood at 279 nM.
Take VMANNVKKK: the Kd came to 6170 nM.
Regarding VSIILANERY, the Kd came out at 3850 nM.
As to VTISKDNLER, the Kd stood at 62.6 nM.
With VTSLAIKNYY, the Kd turned out to be 112 nM.
The same measure, in the same setting: as for VVKLTAVCMK, the figure is 723 nM; as for YTVEFDRDK, 1.25 nM; as for YVIRHVDGK, 1.72 nM.

Broadly, the Kd is the constant that tells how readily two partners part at equilibrium.
